The record followed here is paper doi:10.1101/2025.05.08.652968, “Molecular mechanism of exchange coupling in CLC chloride/proton antiporters” (bioRxiv, 2025).

The series deals with the molecule itself. In words: cryo-EM structure; CLC-ec1 in Salipro (Saposin-A, POPE/POPG) nanoparticles, 10 mM Hepes, 150 mM NaCl, pH 7.5; C2 symmetry imposed.

B1: CLC-ec1 (wild type) (natural protein, E. coli)
chain: MKTDTPSLETPQAARLRRRQLIRQLLERDKTPLAILFMAAVVGTLVGLAAVAFDKGVAWLQNQRMGALVHTADNYPLLLTVAFLCSAVLAMFGYFLVRKYAPEAGGSGIPEIEGALEDQRPVRWWRVLPVKFFGGLGTLGGGMVLGREGPTVQIGGNIGRMVLDIFRLKGDEARHTLLATGAAAGLAAAFNAPLAGILFIIEEMRPQFRYTLISIKAVFIGVIMSTIMYRIFNHEVALIDVGKLSDAPLNTLWLYLILGIIFGIFGPIFNKWVLGMQDLLHRVHGGNITKWVLMGGAIGGLCGLLGFVAPATSGGGFNLIPIATAGNFSMGMLVFIFVARVITTLLCFSSGAPGGIFAPMLALGTVLGTAFGMVAVELFPQYHLEAGTFAIAGMGALLAASIRAPLTGIILVLEMTDNYQLILPMIITGLGATLLAQFTGGKPLYSAILARTLAKQEAEQLARSK
notes: CLC-ec1, the E. coli CLC Cl-/H+ exchange transporter homolog; The eluate of the cobalt column was incubated with Endoproteinase Lys-C; Homodimer in the cryo-EM maps (C2 symmetry imposed); also called WT CLC-ec1; WT
As for B1, the binding result is reported as “binds”.
